Data: PMC5620733, “Aptamer-Based Single-Step Assay by the Fluorescence Enhancement on Electroless Plated Nano Au Substrate”

Target: thrombin (UniProt P00734;P00734 328-363;364-622)
Assay: fluorescence decrease on chitosan-coated Au nanostructure (aptamer release); 10 ug/mL thrombin, 15 min; smaller signal change than 15mer, ascribed to retention on chitosan; 20 mM Tris-HCl pH 7.4, 20 mM MgCl2; chitosan-coated (1000 Da) Au nanostructure blocked with 1% BSA; 15 min; temperature not stated

Q: Does CACTGTGGTTGGTGTGGTTGG (ssDNA) [TBA 21mer (5'-extended)] bind?
A: binds
